Measured values from paper PMC3374333 (Nature neuroscience, 2012).

Molecular target: the molecule itself
Assay: SEC

B1: GBR1bVFT (Venus Flytrap module of the extracellular domain of human GABAB receptor subunit GBR1b) (domain or fragment, UniProt Q9UBS5-2 30-459, looked up)
chain: SHSPHLPRPHSRVPPHPSSERRAVYIGALFPMSGGWPGGQACQPAVEMALEDVNSRRDILPDYELKLIHHDSKCDPGQATKYLYELLYNDPIKIILMPGCSSVSTLVAEAARMWNLIVLSYGSSSPALSNRQRFPTFFRTHPSATLHNPTRVKLFEKWGWKKIATIQQTTEVFTSTLDDLEERVKEAGIEITFRQSFFSDPAVPVKNLKRQDARIIVGLFYETEARKVFCEVYKERLFGKKYVWFLIGWYADNWFKIYDPSINCTVDEMTEAVEGHITTEIVMLNPANTRSISNMTSQEFVEKLTKRLKRHPEETGGFQEAPLAYDAIWALALALNKTSGGGGRSGVRLEDFNYNNQTITDQIYRAMNSSSFEGVSGHVVFDASGSRMAWTLIEQLQGGSYKKIGYYDSTKDDLSWSKTDKWIGGSPPAD
  stoichiometry N: 2
